In publication PMC5317049, “Ex vivo^18O-labeling mass spectrometry identifies a peripheral amyloid β clearance pathway” (Molecular Neurodegeneration, 2017):

B1: ponezumab: C-terminal (Aβ X-40) antibody ponezumab (antibody, chains of the INN, looked up, V domains shown)
VH: QVQLVQSGAEVKKPGASVKVSCKASGYYTEAYYIHWVRQAPGQGLEWMGRIDPATGNTKYAPRLQDRVTMTRDTSTSTVYMELSSLRSEDTAVYYCASLYSLPVYWGQGTTVTVSS
VL: DVVMTQSPLSLPVTLGQPASISCKSSQSLLYSDAKTYLNWFQQRPGQSPRRLIYQISRLDPGVPDRFSGSGSGTDFTLKISRVEAEDVGVYYCLQGTHYPVLFGQGTRLEIK

Experiments:
Aβ1-40 = target: T1, Aβ1-40 (Homo sapiens, UniProt P05067); assay: Effect of antibodies on Aβ degradation in 5% serum; assay type: biochemical; conditions: 4 μg recombinant antibody in 1 ml PBS with 0.016 μM labeled Aβ1-40, 1 h pre-incubation, then 5% serum overnight, room temperature; IP-MALDI MS
T1 construct: To 1 ml PBS containing isotopic labeled Aβ1-40 (0.016 μM) 4 μg of each of the recombinant antibodies; purchased Anaspec, Inc
Procedure: The antibodies were expressed and purified as previously described. Each sample was spiked with serum (5%, end concentration) followed by incubation overnight at room temperature. The samples were placed in a 100 °C heating block for five minutes to disrupt potential antibody/Aβ complexes, and subsequently centrifuged for 10 min at 4 °C (31.000 x g). The supernatants were transferred to new tubes and Aβ peptides were immunoprecipitated and analyzed by mass spectrometry as described above.

Aβ = conditions: than solanezumab; cited from earlier work
IDE = conditions: EDTA in plasma collection tubes; cited from earlier work
[1] = target: T2, insulin-degrading enzyme (IDE) (Homo sapiens, UniProt P14735); assay: Inhibition of IDE activity by insulin; assay type: biochemical; conditions: increasing insulin (0.1, 1 or 10 μM), PBS spiked with Aβ1-40 Arg13C15N, overnight, room temperature; IP-MALDI MS (Fig. 5c)
T2 construct: purchased Sigma
Procedure: […] The samples were incubated overnight at room temperature. Immunoprecipitation and mass spectrometry were conducted as described above.

plasma Aβ = conditions: anti-amyloid treatment; 45 (solanezumab), 9, 22 (ponezumab), 7; cited from earlier work
Source text: To explore this hypothesis, we tested the effect of recombinant versions of the antibodies solanezumab, ba ...

Row | Molecule | effect on proteolytic degradation of Aβ1-40 in serum (Aβ1-40) | increase of plasma Aβ concentration compared to physiological levels (plasma Aβ) | further results
1 | crenezumab: recombinant anti-Aβ antibody crenezumab | did not block the degradation | – | affinity for Aβ compared with solanezumab (Aβ): much lower affinity
2 | O=C(O)CN(CCN(CC(=O)O)CC(=O)O)CC(=O)O [EDTA] | – | – | effect on IDE proteolytic activity (IDE): inhibit IDE proteolytic activity
3 | insulin: insulin added as competing substrate to inhibit IDE-mediated proteolytic activity | – | – | inhibition of IDE-mediated proteolysis of Aβ1-40 Arg13C15N [1]: abundance of Aβ1-20 decreased with increasing insulin concentration
4 | solanezumab: recombinant version of the mid-domain anti-Aβ antibody solanezumab | effectively abrogated | up to thousand-fold | –
5 | B1 | – | up to thousand-fold | –
